Results on one molecule are retold here after patent US8318489B2, “Prostacyclin directed differentiation of cardiomyocytes from human embryonic stem cells” (priority 2005, dated 2012).

The experiment has as its system hES cells. As to the kind of experiment: Embryoid body differentiation of hES cells, visual scoring of beating EBs. It is filed as cell-based, human. The conditions noted are these: growth factor 10 ng/ml added to END2-CM, day 12, compared to END2-CM alone. The method, then: This procedure describes the formation of embryoid bodies (EB) from collagenase-derived hES cell cultures. After formation the EBs were then exposed to END2 conditioned medium (CM).
Enzymatically passaged hES cells grown on feeder cells were washed once with PBS^+ and treated with Collagenase IV (1 mg/ml) for 3-4 min at 37° C. The Collagenase IV solution was replaced by DMEM and the cells were mechanically dissociated with a pipette tip. Cells were then harvested using a cell scraper and the cell suspension was transferred to a 50 ml tube (Falcon). Cell clumps were collected by gravity and the supernatant was aspirated. Cells were resuspended in fresh DMEM medium aiming to uniformly disperse the cell clumps in the suspension. An equal volume of the cell suspension was then transferred to ultra low attachment plates (Costar). […]
In suspension culture, EBs are formed in ultra low attachment plates in SF medium over night. […] Usually, cells were cultured over a period of 12-13 days before the visual analysis of the proportion of beating EBs under a microscope was performed followed by cell collection for additional readouts. Multiple beating areas on single EBs were not counted separately. Values are expressed as a percentage of contracting EBs compared to […] in a single well of a 6-well tray. […] An average value per well was calculated and presented.

B1: Bmp6: recombinant human Bmp6 (R&D) (protein, UniProt P22004 375-513, looked up)
Bone morphogenetic protein 6: SASSRRRQQSRNRSTQSQDVARVSSASDYNSSELKTACRKHELYVSFQDLGWQDWIIAPKGYAANYCDGECSFPLNAHMNATNHAIVQTLVHLMNPEYVPKPCCAPTKLNAISVLYFDDNSNVILKKYRNMVVRACGCH
B1: the “CM induction activity (number of beating areas)” value was “enhance CM induction activity”.
